* marks the point of attachment. Biotin = O=C1N[C@H]2[C@H](CS[C@H]2CCCCC(=O)*)N1
What was measured:
[1] = molecular target: T1, mature myostatin (recombinant, dimeric) (mouse polyprotein used for in-house …, UniProt O08689 268-376); assay: cell-based or functional assay
T1 sequence: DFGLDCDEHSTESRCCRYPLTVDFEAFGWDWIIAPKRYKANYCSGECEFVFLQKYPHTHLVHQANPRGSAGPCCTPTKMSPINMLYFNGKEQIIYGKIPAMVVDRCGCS

[2] = molecular target: T1, mature myostatin (recombinant, dimeric); assay: ELISA, plate-coated myostatin (R&D Systems), mean EC50
Method: 10B3 and 10B3 chimera (10B3C) bound myostatin (R&D Systems, 788-G8-010/CF) in a sandwich ELISA. Plates were coated with myostatin at 10 ng/well and blocked with Block solution (PBS, 0.1% TWEEN and 1% BSA). Following washing (PBS, 0.1% TWEEN), antibody was incubated at 37° C. for 2 hours over a dilution series and plates washed again prior to incubation at 37° C. for 1 hour with anti-mouse HRP or anti-human HRP (Dako, P0161 & Sigma, A-8400, respectively). Plates were again washed and OPD substrate (Sigma, P9187) added until colourometric reaction occurred and the reaction stopped by the addition of H₂SO₄.

[3] = molecular target: T2, artificial myostatin linear peptide 1 (not fully specified); assay: SRU BIND reader, peptides captured on streptavidin biosensor plate
T2 construct: also called Peptide No 1
T2 peptide: H-DFGLDCDEHSTESRGSG-NH2
Method: (§1) Work was carried out on an SRU BIND reader (SRU Biosystems). A streptavidin biosensor plate was washed, a baseline reading taken, and biotinylated peptides captured onto the streptavidin coated biosensor plate. The plate was washed again, and a new baseline reading taken, antibody was then added and binding monitored.

[4] = molecular target: T3, artificial myostatin linear peptide 3 (cysteine pairing not given here); assay: as above
T3 construct: also called Peptide No 3
T3 peptide: Biotin-SGSGDCDEHSTESRCCRY-NH2
Method: as §1

[5] = molecular target: T4, artificial myostatin linear peptide 7 (cysteine pairing not given here); assay: as above
T4 construct: also called Peptide No 7
T4 peptide: Biotin-SGSGSRCCRYPLTVDFEA-NH2
Method: as §1

[6] = molecular target: T5, artificial myostatin linear peptide 15 (SMILES …); assay: as above
T5 construct: also called Peptide No 15
T5 peptide: Biotin-SGSGWDWIIAPKRYKANY-NH2
Method: as §1

[7] = molecular target: T6, artificial myostatin linear peptide 17 (SMILES …); assay: as above
T6 construct: also called Peptide No 17
T6 peptide: Biotin-SGSGIAPKRYKANYCSGE-NH2
Method: as §1

[8] = molecular target: T7, artificial myostatin linear peptide 19 (cysteine pairing not given here); assay: as above
T7 construct: also called Peptide No 19
T7 peptide: Biotin-SGSGRYKANYCSGECEFV-NH2
Method: as §1

[9] = molecular target: T8, artificial myostatin linear peptide 21 (cysteine pairing not given here); assay: as above
T8 construct: also called Peptide No 21
T8 peptide: Biotin-SGSGNYCSGECEFVFLQK-NH2
Method: as §1

[10] = molecular target: T9, artificial myostatin linear peptide 25 (SMILES …); assay: as above
T9 construct: also called Peptide No 25
T9 peptide: Biotin-SGSGFVFLQKYPHTHLVH-NH2
Method: as §1

[11] = molecular target: T10, artificial myostatin linear peptide 33 (cysteine pairing not given here); assay: as above
T10 construct: also called Peptide No 33
T10 peptide: Biotin-SGSGNPRGSAGPCCTPTK-NH2
Method: as §1

[12] = molecular target: T11, artificial myostatin linear peptide 35 (cysteine pairing not given here); assay: as above
T11 construct: also called Peptide No 35
T11 peptide: Biotin-SGSGSAGPCCTPTKMSPI-NH2
Method: as §1

[13] = molecular target: T12, artificial myostatin linear peptide 39 (SMILES …); assay: as above
T12 construct: also called Peptide No 39
T12 peptide: Biotin-SGSGTKMSPINMLYFNGK-NH2
Method: as §1

[14] = molecular target: T13, artificial myostatin linear peptide 41 (SMILES …); assay: as above
T13 construct: also called Peptide No 41
T13 peptide: Biotin-SGSGPINMLYFNGKEQII-NH2
Method: as §1

[15] = molecular target: T14, artificial myostatin linear peptide 43 (SMILES …); assay: as above
T14 construct: also called Peptide No 43
T14 peptide: Biotin-SGSGLYFNGKEQIIYGKI-NH2
Method: as §1

[16] = molecular target: T15, artificial myostatin linear peptide 45 (SMILES …); assay: as above
T15 construct: also called Peptide No 45
T15 peptide: Biotin-SGSGGKEQIIYGKIPAMV-NH2
Method: as §1

[17] = molecular target: T1, mature myostatin (recombinant, dimeric); assay: FORTEbio bio-layer interferometry, myostatin amine-coupled to sensor, 20 nM antibody, 1:1 fit
Method: The affinity of 10B3 mouse parental and H2L2-C91S developability variant for recombinant myostatin was also assessed by FORTEbio™ (bio-layer inferometry) analysis. FORTEbio™ analyses were carried out by antigen capture. Myostatin (in-house, see above at 1.1) was coupled onto amine reactive biosensors by primary amine coupling in accordance with the manufacturer's instructions. Antibodies were then captured onto this surface at 20 nM concentrations. The data was analysed using the evaluation software inherent in the machine and the data analysed using 1:1 fit (see Table 16). Due to the limited number of myostatin molecules bound to the sensor surface and the low antibody concentration, avidity effects are reduced, enabling a more accurate measure of affinity compared to the Biacore analyses. […] However, due to the nature of the binding of the antibodies to myostatin, these values are mainly used for ranking purposes, and the affinity may not be representative of the affinity in vivo.

[18] = molecular target: T1, mature myostatin (recombinant, dimeric); assay: BIAcore T100, antibody captured on anti-mouse IgG (C1 chip), myostatin analyte, all curves Bivalent model
Method: The affinity of 10B3 mouse parental and 10B3C for recombinant myostatin was assessed by BIAcore™ (surface plasmon resonance) analysis. Analysis was carried out by the use of a capture surface: anti-mouse IgG was coupled to a C1 chip by primary amine coupling for 10B3 mouse parental; and a protein A surface was created on a C1 chip by primary amine coupling for 10B3 chimera.
After capture, recombinant myostatin was passed over the surface at 64 nM, 16 nM, 4 nM, 1 nM, 0.25 nM and 0.0625 nM, with a buffer injection (i.e. 0 nM) used for double referencing. There was a regeneration step between each analyte injection, after which the new antibody capture event occurred before the next injection of myostatin. The data was analysed using both the 1:1 model and the Bivalent model inherent to the T100 machines analysis software (see Table 6). Both capture surfaces could be regenerated using 100 mM phosphoric acid, the work was carried out using HBS-EP as the running buffer and using 25° C. as the analysis temperature.

Mean IC50, A204 in vitro activity assay [1]: 8.5 nM
EC50 [2]: 0.069 µg/mL
binding result [3]: no binding
binding result [4]: no binding
binding result [5]: no binding
binding result [6]: no binding
binding result [7]: no binding
binding result [8]: no binding
binding result [9]: no binding
binding result [10]: no binding
binding result [11]: no binding
binding result [12]: no binding
binding result [13]: no binding
binding result [14]: no binding
binding result [15]: no binding
binding result [16]: no binding
Kd [17]: 0.31 nM
koff [17]: 0.000131 s⁻¹
kon [17]: 424000 M⁻¹ s⁻¹
Kd [18]: 5.9 nM
B1: mouse monoclonal antibody 10B3 (antibody, V domains shown)
VH: EVQLQQSGPELVKPGASVKISCKASGYSFTGYFMHWVKQSHGNILDWIGNIYPYNGVSNYNQRFKAKATLTVDKSSSTAYMELRSLTSEDSAVYYCARRYYYGTGPADWYFDVWGTGTTVTVSS
VL: DIKMTQSPSSMYASLRERVTITCKASQDINSYLSWFQQKPGKSPKTLIYRANRLVDGVPSRFSGSGSGQDYSLTISSLEYEDMGIYYCLQCDEFPLTFGAGTKLELK
notes: Mouse IgG2a/kappa from hybridoma; also called 10B3 mouse parental; 10B3 parental
